Measured values published in the Human Domainome abundance scans (Beltran et al. 2025).

B1: Zinc finger MYM-type protein 3, residues 589 to 668; numbered along this chain, Q14202 (parent)
chain: LSCHYCHSLFSGKPEVLDWQDQVFQFCCRDCCEDFKRLRGVVSQCEHCRQEKLLHEKLRFSGVEKSFCSEGCVLLYKQDF

Variants of: B1
Test: abundance fitness (aPCA) (normalised: wild type 0, dead -1); higher = more abundant; growth selection in yeast, the domain comes from the species named
Details: Homo sapiens

Abundance fitness of substitutions, site by site:
F60: M 0.079, P 0.113, Q -0.069, R -0.327, S 0.059, T -0.975, V 0.204
S61: A 0.284, D 0.665, E 0.293, G 0.282, K -0.096, L -0.311, M 0.02, P -0.424, Q -0.12, R -0.137, V -0.389, W -0.467
G62: A -0.722, E 0.013, L -1.05, M -0.3, P -1.01, Q -0.865, R -0.788, V -0.8, W -0.85
V63: A -0.109, D -0.175, E 0.175, K -0.13, L -0.074, P -0.198, Q -0.548, R -0.285, S -0.255, T -0.271
E64: A -0.571, C -0.165, D 0.047, G -0.48, H -0.355, I -0.344, L -0.633, M -0.316, Q -0.363, R -0.692, T -0.238, V -0.359, W -0.176
K65: A -0.268, D -0.711, E -1.07, G -0.779, L -0.441, M 0.26, P 0.325, Q -0.692, R -0.115, S -1.12, T -0.495, V -0.317, Y -0.113
S66: A -0.222, E -0.473, G -0.392, H 0.295, K 0.067, L 0.068, M -0.002, P -0.834, Q -0.618, R -0.059, T -0.617, V -0.235, Y 0.382
F67: A -0.47, C 0.283, E -0.626, G 0.039, H 0.092, K -0.391, L -0.852, M -0.567, N -0.231, P -0.47, Q -0.338, R -0.497, S -0.297, T -0.614, W -0.302
C68: A -0.93, E -0.911, G -0.88, K -0.525, M -0.505, Q -0.558, R -0.892, S -0.619, W -1.18
S69: A -0.023, C 0.093, D -0.702, E -0.341, G -0.64, I -0.15, K -0.282, P -0.445, Q -0.638, R -0.456, V -0.534, W -0.623
E70: A -0.096, C 0.121, D 0, G -0.116, I 0.781, L -0.055, M -0.152, P 0.069, Q 0.199, R -0.687, S 0.067, T -0.048, V -0.066, W -0.918
G71: A 0.156, C -0.535, D 0.351, E 0.62, H -0.037, I 0.317, K 0.337, L -0.105, M 0.721, Q 0.378, R 0.501, S 0.453, T 0.414, V -0.043, W -0.219
C72: A -0.525, E -0.644, K -0.33, L -1.04, M -0.514, P -0.725, Q -0.317, R -0.781, S -0.935, T -0.869, V -0.647, W -0.53
V73: A 0.236, D -0.521, E -0.027, G -0.188, L 0.268, Q -0.309, R 0.149, S 0.167, T -0.167, W -0.167
L74: A 0.404, D 0.145, E 0.662
